The results in this text go back to paper PMC8456781, “Myosin-X and talin modulate integrin activity at filopodia tips” (Cell Reports, 2021).

The labels stand for the following.
T1: ITGA5 tail peptide (Homo sapiens)
T1 chain: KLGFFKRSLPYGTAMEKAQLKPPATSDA

T2: His-tagged MYO10^FERM (recombinant MYO10 MyTH4/FERM domain) (UniProt Q9HD67 1504-2058, RED-tris-NTA dye on the His tag (Monolith His-Tag Labeling Kit))
T2 construct: Vector pET151; also called recombinant MYO10^FERM; MYO10 FERM domain; source: E. coli BL-21(DE3), purified (Protino Ni-TED column)
T2 sequence (looked up): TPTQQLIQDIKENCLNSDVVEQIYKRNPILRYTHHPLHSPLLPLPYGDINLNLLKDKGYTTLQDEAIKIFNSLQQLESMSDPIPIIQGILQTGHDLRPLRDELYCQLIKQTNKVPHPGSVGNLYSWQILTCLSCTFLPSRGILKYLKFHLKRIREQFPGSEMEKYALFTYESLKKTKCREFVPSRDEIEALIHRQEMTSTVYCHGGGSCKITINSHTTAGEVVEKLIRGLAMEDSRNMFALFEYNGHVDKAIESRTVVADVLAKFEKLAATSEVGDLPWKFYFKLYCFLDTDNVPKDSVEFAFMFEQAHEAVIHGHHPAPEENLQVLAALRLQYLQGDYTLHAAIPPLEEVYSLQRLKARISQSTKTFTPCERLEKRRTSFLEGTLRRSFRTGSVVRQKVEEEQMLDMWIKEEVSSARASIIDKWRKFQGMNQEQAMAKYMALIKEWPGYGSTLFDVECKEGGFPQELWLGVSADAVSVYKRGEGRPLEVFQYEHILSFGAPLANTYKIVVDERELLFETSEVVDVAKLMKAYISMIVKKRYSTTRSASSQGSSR

B1: His-TLN1^FERM (recombinant talin-FERM domain) (domain or fragment)
chain: RPLKIRMLDGTVKTIMVDDSKTVTDMLMTICARIGITNHDEYSLVRELMEEKKDEGTGTLRKDKTLLRDEKKMEKLKQKLHTDDELNWLDHGRTLREQGVEEHETLLLRRKFFYSDQNVDSRDPVQLNLLYVQARDDILNGSHPVSFDKACEFAGFQCQIQFGPHNEQKHKAGFLDLKDFLPKEYVKQKGERKIFQAHKNCGQMSEIEAKVRYVKLARSLKTYGVSFFLVKEKMKGKNKLVPRLLGITKECVMRVDEKTKEVIQEWSLTNIKRWAASPKSFTLDFGDYQDGYYSVQTTEGEQIAQLIAGYIDIILKKK
modifications: RED-tris-NTA dye on the His tag (Monolith His-Tag Labeling Kit)
B2: conserved region of the α2-integrin tail, peptide (peptide)
peptide: WKLGFFKRKYEKM
modifications: also: biotinylated, position not given here
notes: Integrin alpha-2 (ITGA2), conserved membrane-proximal region of the cytoplasmic tail; also called ITGA2^WT; ITGA2; source: synthetic peptide (custom, LifeTein)
B3: wild-type β1-integrin tail peptide (peptide)
peptide: KLLMIIHDRREFAKFEKEKMNAKWDTGENPIYKSAVTTVVNPKYEGK
modifications: also: biotinylated, position not given here
notes: Integrin beta-1 (ITGB1) cytoplasmic tail; also called β-tail peptide; integrin β tail; source: synthetic peptide (custom, LifeTein)
B4: His-tagged MYO10^FERM (recombinant MYO10 MyTH4/FERM domain) (domain or fragment)
chain: T2 sequence (looked up)
modifications: RED-tris-NTA dye on the His tag (Monolith His-Tag Labeling Kit)

One experiment concerns the target T1, ITGA5 tail peptide. Briefly: MST.
Experiment [1] concerns the target B4. Briefly: MST.
For experiment [2], the target named is T2, His-tagged MYO10^FERM (recombinant …). Description: MST; His-tagged recombinant FERM domains labelled with RED-tris-NTA at 20 nM, integrin tail peptides at increasing concentration; three independent experiments pooled. Particulars: both partners purified.
Experiment [3] deals with T3, His-TLN1^FERM (recombinant talin-FERM domain) (UniProt P26039 86-403, RED-tris-NTA dye on the His tag (Monolith His-Tag Labeling Kit)).
T3 construct: Talin-1 (TLN1) FERM domain; source: E. coli BL-21(DE3), purified (Protino Ni-TED column)
The description is as above. Particulars: both partners purified.

Where no end group is shown, it is not given here.

On to B1, for which binding in the experiment with ITGA5 tail peptide was characterised by a dissociation constant (Kd) of 557 µM.
Consider B2, for which, in experiment [1], the Kd was 15.8 µM. The binding result in experiment [2] is reported as “binds”.
On to B3, for which the Kd in experiment [3] turned out to be 4.7 µM; in experiment [2], 25.1 µM.
Take B4: the affinity in the experiment with ITGA5 tail peptide, expressed as Kd, was 18.3 µM.

As usually defined, the Kd is the constant that tells how readily two partners part at equilibrium.
